B1: CPEB3 Ribozyme (parent)
chain: GGGGGCCACAGCAGAAGCGUUCACGUCGCGGCCCCUGUCAGAUUCUGGUGAAUCUGCGAAUUCUGCUGU

Results on 39 variants are retold here after the RNAGym collection of RNA variant scans (doi:10.7554/elife.80360).

Variants of B1 are the subject of this data set. The data set is described as follows: self-cleavage, relative activity (ratio to wild type); higher = more cleavage; co-transcriptional.
As to GGGGGCCACAGCAGAAGCGUUCACGUCGCGGCCCCUGACAGAUUCUGGUGAAUCUGCGACUUCUGCUGU [U38A A60C], the self-cleavage worked out at 0.418.

As for GGGGGCCACAGCAGAAGCGUUCACGUCGCGGCCCCUGACAGAUUCUGGUGAAUCUGCGAGUUCUGCUGU [U38A A60G], the self-cleavage was 0.563.

Consider GGGGGCCACAGCAGAAGCGUUCACGUCGCGGCCCCUGACAGUUUCUGGUGAAUCUGCGAAUUCUGCUGU [U38A A42U], for which the self-cleavage was 0.817.

In the case of GGGGGCCACAGCAGAAGCGUUCACGUCGCGGCCCCUUUCAGAUUCUGGUGAAUCUGCGAAGUCUGCUGU [G37U U61G], the self-cleavage was determined as 0.152.

As for GGGGGCCACAGCAGAAGCGUUCACGUCGCGGCCCCUUUCAGAUUCUGGUGAAUCUGCGAACUCUGCUGU [G37U U61C], the self-cleavage came out at 0.21.

With GGGGGCCACAGCAGAAGCGUUCACGUCGCGGCCCCUUUCAGAUUCUGGUGAAUCUGCGAAUUCUGCCGU [G37U U67C], the self-cleavage is 0.317.

Regarding GGGGGCCACAGCAGAAGCGUUCACGUCGCGGCCCCUUUCAGAUUCUGGUGAAUCUGCGAAUUCUGCAGU [G37U U67A], the self-cleavage was 0.293.

On to GGGGGCCACAGCAGAAGCGUUCACGUCGCGGCCCCUUUCAGAUUCUGGUGAAUCUGCGAAUUCUGCGGU [G37U U67G], for which the self-cleavage worked out at 0.304.

As to GGGGGCCACAGCAGAAGCGUUCACGUCGCGGCCCCUUUCAGAUUCUGGCGAAUCUGCGAAUUCUGCUGU [G37U U49C], the self-cleavage came to 0.335.

Regarding GGGGGCCACAGCAGAAGCGUUCACGUCGCGGCCCCUUUCAGAUUCUGGGGAAUCUGCGAAUUCUGCUGU [G37U U49G], the self-cleavage was 0.327.

Turning to GGGGGCCACAGCAGAAGCGUUCACGUCGCGGCCCCUUUCAGAUUCUGGAGAAUCUGCGAAUUCUGCUGU [G37U U49A], the self-cleavage was 0.258.

With GGGGGCCACAGCAGAAGCGUUCACGUCGCGGCCCCUUUCAGAUUCUGGUGAAUCUGCGAAUUCAGCUGU [G37U U64A], the self-cleavage was 0.269.

In the case of GGGGGCCACAGCAGAAGCGUUCACGUCGCGGCCCCUUUCAGAUUCUGGUGAAUCUGCGAAUUCCGCUGU [G37U U64C], the self-cleavage amounted to 0.283.

GGGGGCCACAGCAGAAGCGUUCACGUCGCGGCCCCUGACAGAUUCUGGUGAAUCUGCGAAUUUUGCUGU [U38A C63U]: the self-cleavage was 0.877.

Turning to GGGGGCCACAGCAGAAGCGUUCACGUCGCGGCCCCUGACAGAUUCUGGUGAAUCUGCGAAUUAUGCUGU [U38A C63A], the self-cleavage is 0.663.

Consider GGGGGCCACAGCAGAAGCGUUCACGUCGCGGCCCCUGACAGAUUCUGGUGAAUCUGCGAAUUGUGCUGU [U38A C63G], for which the self-cleavage worked out at 0.67.

With GGGGGCCACAGCAGAAGCGUUCACGUCGCGGCCCCUGACAGAUUCUGGUGAAUCUGUGAAUUCUGCUGU [U38A C57U], the self-cleavage turned out to be 0.35.

For GGGGGCCACAGCAGAAGCGUUCACGUCGCGGCCCCUGACAGAUUCUGGUGAAUCUGAGAAUUCUGCUGU [U38A C57A], the self-cleavage is 0.368.

As for GGGGGCCACAGCAGAAGCGUUCACGUCGCGGCCCCUGACACAUUCUGGUGAAUCUGCGAAUUCUGCUGU [U38A G41C], the self-cleavage came out at 0.675.

Regarding GGGGGCCACAGCAGAAGCGUUCACGUCGCGGCCCCUGACAGAUUCUGGUGAAUCUGCGGAUUCUGCUGU [U38A A59G], the self-cleavage came out at 0.939.

Take GGGGGCCACAGCAGAAGCGUUCACGUCGCGGCCCCUGACAGAUUCUGGUGAAUCUGCGUAUUCUGCUGU [U38A A59U]: the self-cleavage amounted to 0.462.

Regarding GGGGGCCACAGCAGAAGCGUUCACGUCGCGGCCCCUGACAGAUUCUGGUGAAUCUGCGCAUUCUGCUGU [U38A A59C], the self-cleavage is 0.497.

Regarding GGGGGCCACAGCAGAAGCGUUCACGUCGCGGCCCCUGACAGAUUCUGGUGAAUUUGCGAAUUCUGCUGU [U38A C54U], the self-cleavage was determined as 0.911.

Regarding GGGGGCCACAGCAGAAGCGUUCACGUCGCGGCCCCUGAUAGAUUCUGGUGAAUCUGCGAAUUCUGCUGU [U38A C39U], the self-cleavage is 0.888.

In the case of GGGGGCCACAGCAGAAGCGUUCACGUCGCGGCCCCUGACAGAUUCUGGUGUAUCUGCGAAUUCUGCUGU [U38A A51U], the self-cleavage came out at 0.84.

Take GGGGGCCACAGCAGAAGCGUUCACGUCGCGGCCCCUUUCAGAUUCUGGUGAAUCUGCGAAUACUGCUGU [G37U U62A]: the self-cleavage stood at 0.227.

With GGGGGCCACAGCAGAAGCGUUCACGUCGCGGCCCCUUUCAGAUUCUGGUGAAUCUGCGAAUGCUGCUGU [G37U U62G], the self-cleavage was determined as 0.332.

Consider GGGGGCCACAGCAGAAGCGUUCACGUCGCGGCCCCUGACUGAUUCUGGUGAAUCUGCGAAUUCUGCUGU [U38A A40U], for which the self-cleavage was 0.692.

In the case of GGGGGCCACAGCAGAAGCGUUCACGUCGCGGCCCCUUUCAGAUUCUGGUGAAUCUGCGAAUUCUGCUGC [G37U U69C], the self-cleavage was found to be 0.533.

With GGGGGCCACAGCAGAAGCGUUCACGUCGCGGCCCCUUUCAGAUUCUGGUGAACCUGCGAAUUCUGCUGU [G37U U53C], the self-cleavage worked out at 0.252.

Regarding GGGGGCCACAGCAGAAGCGUUCACGUCGCGGCCCCUUUCAGAUUCUGGUGAAGCUGCGAAUUCUGCUGU [G37U U53G], the self-cleavage was found to be 0.206.

GGGGGCCACAGCAGAAGCGUUCACGUCGCGGCCCCUGACAGAUUCUGGUGAGUCUGCGAAUUCUGCUGU [U38A A52G]: the self-cleavage is 0.89.

GGGGGCCACAGCAGAAGCGUUCACGUCGCGGCCCCUGACAGAUUCUGGUGAUUCUGCGAAUUCUGCUGU [U38A A52U]: the self-cleavage was found to be 0.856.

As for GGGGGCCACAGCAGAAGCGUUCACGUCGCGGCCCCUUUCAGAUUCUGGUGAAUCCGCGAAUUCUGCUGU [G37U U55C], the self-cleavage stood at 0.214.

For the variant GGGGGCCACAGCAGAAGCGUUCACGUCGCGGCCCCUUUCAGAUUCUGGUGAAUCGGCGAAUUCUGCUGU [G37U U55G], the self-cleavage stood at 0.173.

Take GGGGGCCACAGCAGAAGCGUUCACGUCGCGGCCCCUGACAGAUUCUGGUGAAUCUGCGAAUUCUGUUGU [U38A C66U]: the self-cleavage amounted to 0.917.

Turning to GGGGGCCACAGCAGAAGCGUUCACGUCGCGGCCCCUGACAGAUUCUGGUGAAUCUGCGAAUUCUGAUGU [U38A C66A], the self-cleavage worked out at 0.721.

Regarding GGGGGCCACAGCAGAAGCGUUCACGUCGCGGCCCCUGACAGAUUCUGGUGAAUCUGCGAAUUCUGGUGU [U38A C66G], the self-cleavage was found to be 0.764.

Take GGGGGCCACAGCAGAAGCGUUCACGUCGCGGCCCCUGACAGAUUGUGGUGAAUCUGCGAAUUCUGCUGU [U38A C45G]: the self-cleavage is 0.902.
